Measurements reported in the supplement of paper PMC7877785.
± gives the uncertainty stated by the source.

Assay: self-splicing fitness, log relative to wild type (ln ratio); higher = more splicing; Tetrahymena group I intron in knt gene, E. coli kanamycin selection, DiMSum; sequences stand for … in CUCUCU…GGAGGGAAAAGUUAUCAGGCAUGCACCUGGUAGCUAGUCUUUAAACCAAUAGAUUGCAUCGGUUUAAAAGGCAAGACCGUCAAAUUGCGGGAAAGGGGUCAACAGCCGUUCAGUACCAAGUCUCAGGGGAAACUUUGAGAUGGCCUUGCAAAGGGUAUGGUAAUAAGCUGACGGACAUGGUCCUAACCACGCAGCCAAGUCCUAAGUCAACAGAUCUUCUGUUGAUAUGGAUGCAGUUCACAGACUAAAUGUCGGUCGGGGAAGAUGUAUUCUUCUCAUAAGAUAUAGUCGGACCUCUCCUUAAUGGGAGCUAGCGGAUGAAGUGAUGCAACACUGGAGCCGCUGGGAACUAAUUUGUAUGCGAAAGUAUAUUGAUUAGUUUUGGAGUACUCGUGGUCG
In short: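 DiMSum derived fitness as the error-weighted combination of fold changes across replicates, kanamycin versus no kanamycin, normalised to wild type. E. coli BL21(DE3) held the library, which randomised all eight P1ex-region intron nucleotides within the knt kanamycin-resistance gene on pET-22b(+). Six replicate transformations grew overnight at 37°C or 30°C on LB agar with or without 25 μg/mL kanamycin, also containing 100 μg/mL carbenicillin, 50 μM IPTG and 0.2% rhamnose, and pooled colonies were amplicon-sequenced on an Illumina HiSeq 2500.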

Sequence	self-splicing fitness (ln) (30 °C)	self-splicing fitness (ln) (37 °C)
UGGGAGCAAUAUUACGACAA	-2.75 ± 0.34	-0.982 ± 0.3
UGGGAGCAAUAUUACGAGUC	–	-1.83 ± 0.47
UGGGAGCAAUAUUACGAUUA	-2.17 ± 0.22	-2.1 ± 0.29
UGGGAGCAAUAUUACGAUUC	-4.38 ± 0.27	-2.41 ± 0.21
UGGGAGCAAUAUUACGCAUA	-1.98 ± 0.27	-1.22 ± 0.22
UGGGAGCAAUAUUACGCAUG	-3.28 ± 0.35	-0.201 ± 0.22
UGGGAGCAAUAUUACGGCGG	-2.86 ± 0.4	-1.23 ± 0.46
UGGGAGCAAUAUUACGGGCC	-2.63 ± 0.32	-1.92 ± 0.35
UGGGAGCAAUAUUACGGGGU	-1.76 ± 0.33	-1.7 ± 0.35
UGGGAGCAAUAUUACGGUGU	-2.52 ± 0.45	-1.9 ± 0.37
UGGGAGCAAUAUUACGUAGC	-3.22 ± 0.27	–
UGGGAGCAAUAUUACGUAUC	-3.59 ± 0.39	-2.56 ± 0.33
UGGGAGCAAUAUUACGUCCC	-3.01 ± 0.4	-1.84 ± 0.41
UGGGAGCAAUAUUACGUCGG	-0.491 ± 0.24	–
UGGGAGCAAUAUUACGUUAG	-3.58 ± 0.32	-2.13 ± 0.23
UGGGAGCAAUAUUACGUUCU	-2.95 ± 0.29	-2.35 ± 0.32
UGGUAGCAAUAUUACGAAAG	-3.06 ± 0.26	–
UGGUAGCAAUAUUACGAACU	-0.279 ± 0.12	0.0176 ± 0.18
UGGUAGCAAUAUUACGACCA	-1.07 ± 0.18	-1.02 ± 0.2
UGGUAGCAAUAUUACGACCC	0.0232 ± 0.27	-0.576 ± 0.36
UGGUAGCAAUAUUACGACUA	-0.227 ± 0.16	-0.296 ± 0.2
UGGUAGCAAUAUUACGAGUA	-0.457 ± 0.19	-0.963 ± 0.2
UGGUAGCAAUAUUACGAUGG	-2.44 ± 0.15	-1.1 ± 0.17
UGGUAGCAAUAUUACGAUUU	-1.14 ± 0.14	-0.866 ± 0.14
UGGUAGCAAUAUUACGCCAU	–	-1.09 ± 0.48

Sequence	self-splicing fitness (ln) (30 °C)	self-splicing fitness (ln) (37 °C)
UGGUAGCAAUAUUACGCCUA	0.144 ± 0.11	0.464 ± 0.12
UGGUAGCAAUAUUACGCGCU	-2.58 ± 0.18	-1.31 ± 0.18
UGGUAGCAAUAUUACGCUCU	-2.22 ± 0.2	-1.31 ± 0.24
UGGUAGCAAUAUUACGCUUA	-0.955 ± 0.18	-0.553 ± 0.22
UGGUAGCAAUAUUACGGUAG	-2.53 ± 0.2	-0.912 ± 0.14
UGGUAGCAAUAUUACGGUUA	-0.381 ± 0.12	0.439 ± 0.15
UGGUAGCAAUAUUACGUCGC	-3.78 ± 0.21	-2.88 ± 0.19
UGGUAGCAAUAUUACGUCGU	-2.83 ± 0.15	-1.59 ± 0.16
UGGUAGCAAUAUUACGUGAA	-1.96 ± 0.14	-1.57 ± 0.15
UGGUAGCAAUAUUACGUGCU	-2 ± 0.13	-1.18 ± 0.16
UGGUAGCAAUAUUACGUUAA	-3.27 ± 0.21	-1.78 ± 0.17
UGUAAGCAAUAUUACGAAUU	-2.57 ± 0.25	-1.64 ± 0.19
UGUAAGCAAUAUUACGACCA	0.386 ± 0.12	0.0758 ± 0.19
UGUAAGCAAUAUUACGACUA	0.00851 ± 0.12	0.0364 ± 0.14
UGUAAGCAAUAUUACGCACC	-0.744 ± 0.36	0.286 ± 0.37
UGUAAGCAAUAUUACGCCCA	-0.177 ± 0.18	0.0098 ± 0.2
UGUAAGCAAUAUUACGCUCU	0.793 ± 0.47	-0.974 ± 0.45
UGUAAGCAAUAUUACGCUGU	-3.43 ± 0.18	-2.07 ± 0.18
UGUAAGCAAUAUUACGGACA	-0.174 ± 0.16	0.153 ± 0.23
UGUAAGCAAUAUUACGGGCC	-2.87 ± 0.41	-1.23 ± 0.41
UGUAAGCAAUAUUACGGGGG	-3.46 ± 0.22	-1.88 ± 0.21
UGUAAGCAAUAUUACGGUCU	-0.465 ± 0.089	-0.33 ± 0.11
UGUAAGCAAUAUUACGGUUC	–	-2.92 ± 0.31
UGUAAGCAAUAUUACGUAAC	-2.22 ± 0.15	-2.91 ± 0.4
UGUAAGCAAUAUUACGUACA	-0.772 ± 0.098	-0.557 ± 0.16

Sequence	self-splicing fitness (ln) (30 °C)	self-splicing fitness (ln) (37 °C)
UGUAAGCAAUAUUACGUCUC	–	-1.56 ± 0.23
UGUAAGCAAUAUUACGUUGG	-2.14 ± 0.14	-1.46 ± 0.18
UGUCAGCAAUAUUACGAAGG	-1.69 ± 0.1	-0.409 ± 0.14
UGUCAGCAAUAUUACGACUC	-1.12 ± 0.14	0.256 ± 0.16
UGUCAGCAAUAUUACGCAAA	-0.635 ± 0.11	-0.0477 ± 0.12
UGUCAGCAAUAUUACGCAGA	-2.8 ± 0.25	-2.38 ± 0.5
UGUCAGCAAUAUUACGCGCA	-1.67 ± 0.13	-0.608 ± 0.14
UGUCAGCAAUAUUACGCGGU	-3.09 ± 0.26	-2.2 ± 0.29
UGUCAGCAAUAUUACGCGUU	-1.16 ± 0.072	-0.631 ± 0.083
UGUCAGCAAUAUUACGCUAA	-0.476 ± 0.071	0.355 ± 0.094
UGUCAGCAAUAUUACGCUGG	-4.05 ± 0.39	-2.19 ± 0.34
UGUCAGCAAUAUUACGCUUA	-0.0584 ± 0.077	0.408 ± 0.11
UGUCAGCAAUAUUACGGAUC	-1.89 ± 0.08	-0.775 ± 0.075
UGUCAGCAAUAUUACGGCCG	-0.69 ± 0.14	-0.658 ± 0.17
UGUCAGCAAUAUUACGGGCU	-1.7 ± 0.086	-1.4 ± 0.12
UGUCAGCAAUAUUACGGUAA	-0.649 ± 0.087	0.294 ± 0.1
UGUCAGCAAUAUUACGGUAU	-2.46 ± 0.14	-1.11 ± 0.12
UGUCAGCAAUAUUACGGUCA	-0.432 ± 0.071	0.606 ± 0.091
UGUCAGCAAUAUUACGGUCC	-0.381 ± 0.15	-0.567 ± 0.19
UGUCAGCAAUAUUACGGUCU	-0.529 ± 0.063	0.201 ± 0.083
UGUCAGCAAUAUUACGGUUA	-0.384 ± 0.089	0.239 ± 0.087
UGUCAGCAAUAUUACGUACU	-0.114 ± 0.058	0.497 ± 0.078
UGUCAGCAAUAUUACGUAUC	-2.16 ± 0.2	-1.68 ± 0.29
UGUGAGCAAUAUUACGAAGU	-1.67 ± 0.32	–
UGUGAGCAAUAUUACGAAUG	-2.16 ± 0.1	-0.688 ± 0.097

Sequence	self-splicing fitness (ln) (30 °C)	self-splicing fitness (ln) (37 °C)
UGUGAGCAAUAUUACGAUCG	-1.36 ± 0.1	0.456 ± 0.17
UGUGAGCAAUAUUACGAUUU	–	-2.06 ± 0.27
UGUGAGCAAUAUUACGCAGG	-3.81 ± 0.42	-1.39 ± 0.27
UGUGAGCAAUAUUACGCCGC	-2.82 ± 0.34	-1.2 ± 0.48
UGUGAGCAAUAUUACGCGGG	–	-2.31 ± 0.26
UGUGAGCAAUAUUACGCUCU	-1.26 ± 0.3	–
UGUGAGCAAUAUUACGCUGU	-3.47 ± 0.18	-2.66 ± 0.19
UGUGAGCAAUAUUACGCUUA	-2.52 ± 0.27	-2.85 ± 0.27
UGUGAGCAAUAUUACGGAUU	–	-1.59 ± 0.34
UGUGAGCAAUAUUACGGCAU	-3.25 ± 0.28	-1.53 ± 0.15
UGUGAGCAAUAUUACGGGUG	-2.6 ± 0.14	-1.9 ± 0.13
UGUGAGCAAUAUUACGGUAC	-3.38 ± 0.28	-2.3 ± 0.29
UGUGAGCAAUAUUACGGUCC	-3.6 ± 0.48	-2.09 ± 0.42
UGUGAGCAAUAUUACGUACA	-1.04 ± 0.091	-0.41 ± 0.1
UGUGAGCAAUAUUACGUCUC	-1.96 ± 0.25	–
UGUGAGCAAUAUUACGUGAU	-5.21 ± 0.36	–
UGUGAGCAAUAUUACGUUCA	-3.06 ± 0.31	-1.56 ± 0.39
UGUUAGCAAUAUUACGAAGG	-1.88 ± 0.16	-2.16 ± 0.27
UGUUAGCAAUAUUACGACAA	-0.407 ± 0.18	0.123 ± 0.16
UGUUAGCAAUAUUACGACAG	-1.39 ± 0.17	0.0704 ± 0.2
UGUUAGCAAUAUUACGACGU	-0.716 ± 0.11	-1.37 ± 0.1
UGUUAGCAAUAUUACGCAUC	–	-1.93 ± 0.27
UGUUAGCAAUAUUACGCCCG	-0.283 ± 0.18	0.289 ± 0.22
UGUUAGCAAUAUUACGCCUA	-1.17 ± 0.13	0.387 ± 0.15
UGUUAGCAAUAUUACGGAGG	-2.3 ± 0.45	–
